In the supplement of paper PMC10126150:
± gives the standard deviation of the averaged measurements.

Tested on: ATP
Test: switch fluorescence ratio, 500 uM ATP over buffer (Cy3 cluster intensity, sum of 5 cycles each) (fold (ratio)); higher = stronger signal-on switching upon ATP binding; sequences stand for … in TCGTCGGCAGCGTCAGATGTGTATAAGAGACAGTTTTTTTTTTTTTTTTTTTTTTTTT…TC
Conditions: aptamer strand: ATP DNA aptamer (quencher-CACCTGGGGGAGTATTGCGGAGGAAGG + anchor), 100 nM annealed; ATP concentration: 500 uM
Summary of the method: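 The quencher-labelled ATP aptamer, at 100 nM, was annealed to Cy3-labelled switching-strand clusters on a modified Illumina MiSeq flow-cell. The clusters were imaged in selection buffer, then after 15 min with 500 uM ATP at 22 °C, and this buffer/ATP cycle ran five times with NaOH stripping and re-annealing between runs. Per-cluster fluorescence ratios, summed target-cycle over summed buffer-cycle Cy3 intensity, were averaged per switch-domain sequence. Clusters outside 100-1000 RFU were excluded.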
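Note: ATP exposure 15 min at 22 °C before imaging.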

Sequence	switch fluorescence ratio
GAAAAGGGGT	1 ± 0.028
GAAAAGTATC	1.001 ± 0.0022
GAAAATAGGT	0.99 ± 0.024
GAAAATTGAG	1 ± 0.015
GAAAATTGCC	0.978 ± 0.075
GAAACAGATA	1 ± 0.012
GAAACATGCT	1.01 ± 0.052
GAAACGGGGG	1.013 ± 0.009
GAAACTGGAA	0.997 ± 0.016
GAAACTTGCA	1.075 ± 0.0066
GAAAGCATAT	1.01 ± 0.034
GAAAGCCCGT	0.989 ± 0.021
GAAAGCTGAG	1.18 ± 0.033
GAAAGGGATG	1.03 ± 0.029
GAAAGTAACC	1.05 ± 0.021
GAAAGTATGT	1 ± 0.024
GAAAGTCGGA	0.998 ± 0.066
GAAAGTGCTA	1.07 ± 0.03
GAAAGTGTGT	1.004 ± 0.0092
GAAAGTTAAA	1.038 ± 0.0091
GAAATAATAA	1.01 ± 0.011
GAAATAGGGC	0.997 ± 0.0058
GAAATATTTT	0.996 ± 0.05
GAAATCATGT	0.977 ± 0.023
GAAATCGTTT	0.9949 ± 0.0082

Sequence	switch fluorescence ratio
GAAATGATTC	1 ± 0.024
GAAATGGAGG	0.995 ± 0.027
GAAATGGGTG	1.04 ± 0.078
GAAATTCCGA	1.85 ± 1.1
GAAATTTAAG	1.02 ± 0.035
GAAATTTAGG	0.9938 ± 0.0046
GAAATTTGAA	1.01 ± 0.012
GAAATTTGGA	0.991 ± 0.034
GAAATTTGGT	0.99 ± 0.042
GAACACTTAT	1.04 ± 0.044
GAACCATGTT	0.977 ± 0.014
GAACCGGATG	0.9997 ± 0.0074
GAACCTAGAG	0.98 ± 0.056
GAACGAAGTT	1 ± 0.018
GAACGGAATT	1.19 ± 0.023
GAACGGCTG	1.07 ± 0.049
GAACGTCCAG	0.99 ± 0.027
GAACGTCTAC	1.28 ± 0.056
GAACTAAGGA	0.9895 ± 0.0027
GAACTCATGA	0.982 ± 0.012
GAACTGATAA	1.16 ± 0.2
GAACTGGTAG	0.992 ± 0.035
GAACTTGGGA	0.983 ± 0.058
GAACTTGGTT	1 ± 0.062
GAACTTTTTT	0.9935 ± 0.0083

Sequence	switch fluorescence ratio
GAAGAAAGAG	1.02 ± 0.022
GAAGACAGTA	1.01 ± 0.013
GAAGACGTTA	1.04 ± 0.023
GAAGAGCGGG	0.978 ± 0.016
GAAGATAGGT	0.993 ± 0.03
GAAGATAGTG	0.986 ± 0.03
GAAGATATTA	1 ± 0.011
GAAGATGGGG	1.01 ± 0.024
GAAGCAGCAG	1.1888 ± 0.00054
GAAGCCCAGG	3.38 ± 2.6
GAAGCGCGTC	0.998 ± 0.049
GAAGCTCCTG	0.996 ± 0.0043
GAAGCTTGGT	0.972 ± 0.041
GAAGGAAGAT	0.9708 ± 0.0069
GAAGGAAGTG	1 ± 0.034
GAAGGAATGT	1 ± 0.022
GAAGGAGAAG	0.955 ± 0.0083
GAAGGCAAGG	1.07 ± 0.011
GAAGGGAGCA	1.02 ± 0.028
GAAGGGATGT	1.01 ± 0.042
GAAGGGCAGT	0.966 ± 0.029
GAAGGGCGTT	0.98247 ± 0.00082
GAAGGGGACG	1.006 ± 0.0085
GAAGGGGTGG	1.01 ± 0.037
GAAGGGGTTC	1.06 ± 0.084

Sequence	switch fluorescence ratio
GAAGGGTAAT	0.9955 ± 0.0036
GAAGGTAGAG	0.99 ± 0.042
GAAGGTAGCA	1.03 ± 0.041
GAAGGTATAC	1.66 ± 0.18
GAAGGTATGT	0.96567 ± 1.1e-05
GAAGGTGGGC	0.962 ± 0.028
GAAGGTTATG	1 ± 0.015
GAAGTAAGAG	1.11 ± 0.019
GAAGTAGTCG	1.06 ± 0.017
GAAGTATGGT	1.01 ± 0.031
GAAGTCGTAG	0.96 ± 0.039
GAAGTCGTGC	0.999 ± 0.023
GAAGTCGTT	0.973 ± 0.0057
GAAGTGGGGG	1.01 ± 0.042
GAAGTTATCG	0.982 ± 0.022
GAAGTTGCCT	1.05 ± 0.028
GAAGTTGTCA	1.02 ± 0.047
GAAGTTGTGT	0.987 ± 0.031
GAAGTTGTTG	0.9642 ± 0.0036
GAAGTTTTTG	0.993 ± 0.017
GAATAAATTT	1.02 ± 0.069
GAATACTTCG	1.07 ± 0.016
GAATACTTGG	1.04 ± 0.054
GAATAGGGCC	1.01 ± 0.028
GAATAGGTAA	1.023 ± 0.0038
